Here are results for one protein from article PMC9741607, “Cryo-electron tomography reveals structural insights into the membrane remodeling mode of dynamin-like EHD filaments” (Nature Communications, 2022).

The data set deals with the molecule itself. Nature of the data set: cryo-EM structure; cryo-electron tomography and subtomogram averaging of EHD4^ΔN filaments on membrane tubes (liposomes of 50% Folch extract, 40% phosphatidylethanolamine, 10% cholesterol) with AMPPNP; pseudo-atomic model by rigid-body and flexible fitting.

B1: mouse EHD4 (residues 22-541, EHD4^ΔN) (domain or fragment, UniProt Q9EQP2 22-541, looked up)
chain: QTVTGGLRSLYQRKVLPLEEAYRFHEFHSPALEDADFENKPMILLVGQYSTGKTTFIRYLLEQDFPGMRIGPEPTTDSFIAVMYGETEGSTPGNALVVDPKKPFRKLSRFGNAFLNRFMCSQLPNQVLKSISIIDSPGILSGEKQRISRGYDFCQVLQWFAERVDRIILLFDAHKLDISDEFSEAIKAFRGQDDKIRVVLNKADQVDTQQLMRVYGALMWSLGKVINTPEVLRVYIGSFWAQPLQNTDNRRLFEAEAQDLFRDIQSLPQKAAVRKLNDLIKRARLAKVHAYIISYLKKEMPNMFGKENKKRELIYRLPEIYVQLQREYQISAGDFPEVKAMQEQLENYDFTKFHSLKPKLIEAVDNMLTNKISSLMGLISQEEMNMPTQMVQGGAFDGTTEGPFNQGYGEGAKEGADEEEWVVAKDKPVYDELFYTLSPINGKISGVNAKKEMVTSKLPNSVLGKIWKLADCDCDGMLDEEEFALAKHLIKIKLDGYELPNSLPPHLVPPSHRKSLPKAD
notes: Eps15-homology domain containing protein 4 (EHD4), mouse, amino acids 22-541; N-terminal residues deleted; The fitted model covers residues 22-535; The His6 tag was removed with PreScission protease; also called N-terminal deletion construct of mouse EHD4; EHD4/Pincher; source: E. coli BL21(DE3)-Rosetta2, purified (NiNTA, Superdex 200); not shown: His6, N-terminal, cleaved
For the protein B1, the binding result was “binds”.
